Results reported in patent US20250282866A1 (VIGIL NEUROSCIENCE, published 2025).

Legend:
human TREM2 [1] = molecular target: T1, human TREM2 (human, UniProt Q9NZC2 19-174, limits assumed); assay: 2nd screen 100 nM
T1 construct: also called triggering receptor expressed on myeloid cells 2
T1 sequence: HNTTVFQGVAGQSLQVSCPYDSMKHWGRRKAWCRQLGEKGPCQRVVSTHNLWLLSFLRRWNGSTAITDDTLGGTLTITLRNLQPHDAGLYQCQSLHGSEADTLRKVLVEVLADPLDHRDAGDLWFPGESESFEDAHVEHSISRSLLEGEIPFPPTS

human TREM2 [2] = molecular target: T1, human TREM2; assay: 1st screen (110 nM or 10 nM)

B1: V79 (antibody, V domains shown)
VH: EVQLVQSGAEVKKPGESLKISCKGSGYSFTSYWIAWVRQMPGKGLEWMGIIYPGDSDTNYSPSFQGQVTISADKSISTAYLQWSSLKASDTAMYFCARQRTFYYDSSDYFDYWGQGTLVTVSS
VL: DIQMTQSPSSVSASVGDRVTITCRASQGISSWLAWYQQKPGKAPKLLIYAASSLQNGVPSRFSGSGSGTDFTLTISSLQPEDFATYFCQQADSFPRTFGQGTKLEIK
Binding Signal (fold over 6E7 Parental antibody) (human TREM2 [1]): 0.52 fold
Binding Signal (fold over 6E7 Parental antibody) (human TREM2 [2]): 0.7 fold

B2: V91 (antibody, V domains shown)
VH: EVQLVQSGAEVKKPGESLKISCKGSGYSFTSYWIAWVRQMPGKGLEWMGIIYPDDSDTRYSPSFQGQVTISADKSISTAYLQWSSLKASDTAMYFCARQRTFYYDSSDYFDYWGQGTLVTVSS
VL: DIQMTQSPSSVSASVGDRVTITCRASQGISSWLAWYQQKPGKAPKLLIYAASSLQNGVPSRFSGSGSGTDFTLTISSLQPEDFATYFCQQADSFPRTFGQGTKLEIK
Binding Signal (fold over 6E7 Parental antibody) (human TREM2 [1]): 0.61 fold
Binding Signal (fold over 6E7 Parental antibody) (human TREM2 [2]): 0.25 fold

B3: V83 (antibody, V domains shown)
VH: EVQLVQSGAEVKKPGESLKISCKGSGYSFTSYWIAWVRQMPGKGLEWMGIIYPGDSDTRYSPSFQGQVTISADKSISTAYLQWSSLKASDTAMYFCARQRTFYYDSSDYFDYWGQGTLVTVSS
VL: DIQMTQSPSSVSASVGDRVTITCRASQGISSWLAWYQQKPGKAPKLLIYAASSLQNGVPSRFSGSGSGTDFTLTISSLQPEDFATYFCQQAVSFPRTFGQGTKLEIK
Binding Signal (fold over 6E7 Parental antibody) (human TREM2 [1]): 0.29 fold
Binding Signal (fold over 6E7 Parental antibody) (human TREM2 [2]): 0.2 fold

B4: V82 (antibody, V domains shown)
VH: EVQLVQSGAEVKKPGESLKISCKGSGYSFTSYWIAWVRQMPGKGLEWMGIIYPGDSDTRYSPSFQGQVTISADKSISTAYLQWSSLKASDTAMYFCARQRTFYYDSSDYFDYWGQGTLVTVSS
VL: DIQMTQSPSSVSASVGDRVTITCRASQGISSWLAWYQQKPGKAPKLLIYAGSSLQNGVPSRFSGSGSGTDFTLTISSLQPEDFATYFCQQADSFPRTFGQGTKLEIK
Binding Signal (fold over 6E7 Parental antibody) (human TREM2 [1]): 0.79 fold
Binding Signal (fold over 6E7 Parental antibody) (human TREM2 [2]): 0.3 fold

B5: V81 (antibody, V domains shown)
VH: EVQLVQSGAEVKKPGESLKISCKGSGYSFTSYWIAWVRQMPGKGLEWMGIIYPGDSDTRYSPSFQGQVTISADKSISTAYLQWSSLKASDTAMYFCARQRTFYYDSSDYFDYWGQGTLVTVSS
VL: DIQMTQSPSSVSASVGDRVTITCRASQGISSLLAWYQQKPGKAPKLLIYAASSLQNGVPSRFSGSGSGTDFTLTISSLQPEDFATYFCQQADSFPRTFGQGTKLEIK
Binding Signal (fold over 6E7 Parental antibody) (human TREM2 [1]): 0.23 fold
Binding Signal (fold over 6E7 Parental antibody) (human TREM2 [2]): 0.17 fold

B6: V80 (antibody, V domains shown)
VH: EVQLVQSGAEVKKPGESLKISCKGSGYSFTSYWIAWVRQMPGKGLEWMGIIYPGDSDTRYSPSFQGQVTISADKSISTAYLQWSSLKASDTAMYFCARQRNFYYDSSDYFDYWGQGTLVTVSS
VL: DIQMTQSPSSVSASVGDRVTITCRASQGISSWLAWYQQKPGKAPKLLIYAASSLQNGVPSRFSGSGSGTDFTLTISSLQPEDFATYFCQQADSFPRTFGQGTKLEIK
Binding Signal (fold over 6E7 Parental antibody) (human TREM2 [1]): 0.5 fold
Binding Signal (fold over 6E7 Parental antibody) (human TREM2 [2]): 0.59 fold

B7: V90 (antibody, V domains shown)
VH: EVQLVQSGAEVKKPGESLKISCKGSGYSFTSEWIAWVRQMPGKGLEWMGIIYPGDSDTRYSPSFQGQVTISADKSISTAYLQWSSLKASDTAMYFCARQRTFYYDSSDYFDYWGQGTLVTVSS
VL: DIQMTQSPSSVSASVGDRVTITCRASQGISRWLAWYQQKPGKAPKLLIYAASSLQNGVPSRFSGSGSGTDFTLTISSLQPEDFATYFCQQADSFPRTFGQGTKLEIK
Binding Signal (fold over 6E7 Parental antibody) (human TREM2 [1]): 0.36 fold
Binding Signal (fold over 6E7 Parental antibody) (human TREM2 [2]): 0.33 fold
